Measurements as given in patent US10398755B2, “Clusterin pharmaceuticals and treatment methods using the same” (UNIVERSITY OF SOUTHERN CALIFORNIA, priority 2009, dated 2019).

Tests used:
[1] = system: MMP-9 secreted from HCLE cells; assay: TNF-alpha induction of MMP-9 secretion from stratified HCLE cells (gelatin zymography); assay type: cell-based, human; conditions: clusterin 50 ug/ml with TNF-alpha 10 ng/ml, 24 hours
Protocol: (§1) HCLE cells were grown to be confluent in KSFM media and then replenished with DMAM/F12 media to stratify cells for 7 days. To these cells in serum-free DMEM/F12 media, clusterin (50 ug/ml), bovine serum albumin (BSA, 50 ug/ml), and TNF-alpha (10 ng/ml), individually or in combination, were treated for 24 hours. The same volume of supernatants of the cell cultures treated were collected to resolve on SDS/PAGE gel containing gelatin in order to perform gelatin zymography to visualize the presence of MMP-9 secreted from the cells.
as §1, with “cells. […] Therefore, Clusterin inhibits the induction of MMP-9 from human corneal limbal epithelial (HCLE) cells. (See FIG. 10)” for “cells.”

[2] = molecular target: T1, catalytic domain of human MMP-9 (residue 112-445) (Homo sapiens, UniProt P14780); assay: MMP inhibition assay (FRET peptide substrate), recombinant MMP-9 catalytic domain; assay type: biochemical; conditions: CLU 50 μg/ml (0.63 μM), RT 0.3 h
T1 construct: The recombinant catalytic domain of human MMP-9 (residue 112-445) was purchased from ProtEra; purchased ProtEra
T1 sequence (P14780 112-445): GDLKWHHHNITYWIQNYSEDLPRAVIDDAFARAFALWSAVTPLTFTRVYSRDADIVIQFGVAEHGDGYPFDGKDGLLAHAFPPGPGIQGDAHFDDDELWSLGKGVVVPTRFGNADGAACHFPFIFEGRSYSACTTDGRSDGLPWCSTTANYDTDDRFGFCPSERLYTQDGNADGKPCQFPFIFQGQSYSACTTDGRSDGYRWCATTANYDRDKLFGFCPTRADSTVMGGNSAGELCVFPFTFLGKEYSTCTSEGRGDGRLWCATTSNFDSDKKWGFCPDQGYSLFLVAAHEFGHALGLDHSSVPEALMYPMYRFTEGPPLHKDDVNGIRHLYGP
Protocol: Recombinant MMP-9 catalytic domain (A) or APMA-activated MMP-7 (B) was incubated with PBS, CLU (50 μg/ml or 0.63 μM), SB3-CT (2 μM), or BSA (50 μg/ml), and MMP FRET substrate at RT for 0.3 h. RFU in PBS samples was considered 100%. Each reaction was performed in triplicate. Standard errors were depicted as a bar in each graph. MMPs were mixed with CLD in TSCB buffer, 50 mM Tris-HCI, pH, 7.5, 150 mM NaCl, 5 mM CaCl2, 0.002% Brij35 (or otherwise indicated concentration) 30 min prior to substrate addition, and incubated for 3 h at RT in the presence or absence of 0.02 mM p-aminophenylmercuric acetate (APMA). MMP activity was measured using a 5-FAM/QXL520 fluorescence resonance energy transfer (FRET) peptide as a substrate (EXlEm=490 nm/520 nm) (AnaSpec, Fremont, Calif.), according to the manufacturer's protocol. Relative fluorescence unit (RFU) was obtained by subtracting the values of APMA- or enzyme-omitted reactions from those of test samples, and then considering the fluorescence unit of a PBS (vehicle) sample as 100%. Enzyme reactions were performed in black 96-well plate, containing combinations of 10 ng, 5 ng, 5 ng, 10 ng, 2.5 μg, 2.5 μg of MMP-2, MMP-7, catalytic domain of MMP-9, MMP-9, CCLU, and/or BSA, respectively, in 50 μl reaction volume. As MMP substrates (0.4 μM), 520 MMP FRET substrate […] […] Fluorescence was monitored using a Victor^3TM V multilabel counter (PerkinElmer). […]

B1: CLU: secreted disulfide-linked heterodimeric glycoprotein (70-80 KD); assays used recombinant mouse CLU with C-terminal (His)6 (protein, UniProt Q06890 22-448, looked up)
Clusterin: EQEVSDNELQELSTQGSRYINKEIQNAVQGVKHIKTLIEKTNAERKSLLNSLEEAKKKKEDALEDTRDSEMKLKAFPEVCNETMMALWEECKPCLKHTCMKFYARVCRSGSGLVGQQLEEFLNQSSPFYFWMNGDRIDSLLESDRQQSQVLDAMQDSFARASGIIDTLFQDRFFARELHDPHYFSPIGFPHKRPHFLYPKSRLVRSLMSPSHYGPPSFHNMFQPFFEMIHQAQQAMDVQLHSPAFQFPDVDFLREGEDDRTVCKEIRRNSTGCLKMKGQCEKCQEILSVDCSTNNPAQANLRQELNDSLQVAERLTEQYKELLQSFQSKMLNTSSLLEQLNDQFNWVSQLANLTQGEDKYYLRVSTVTTHSSDSEVPSRVTEVVVKLFDSDPITVVLPEEVSKDNPKFMDTVAEKALQEYRRKSRAE
modifications: C-terminal His6 tag
Which “TNF-induced MMP-9 secretion” value [1] does the source give for B1 here?
The value was “inhibited TNF-induced MMP-9 secretion”.

And the “inhibition of MMP-9 catalytic domain activity” value [2]?
Its value is 59%.
